The record followed here is paper PMC3365938.

The assay deals with TolAIII, C-terminal domain of E. coli TolA (residues 302-421) with N-terminal His6 tag (E. coli) (UniProt P19934). In words: SPR.
UniProt P19934, sequence (P19934 302-421): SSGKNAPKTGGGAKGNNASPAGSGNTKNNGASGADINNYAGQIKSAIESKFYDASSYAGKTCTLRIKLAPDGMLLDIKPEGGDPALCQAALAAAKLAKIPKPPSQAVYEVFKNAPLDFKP

“TA53-107, residues 53-107 of the translocation domain of colicin A (from UniProt P04480 53-107) (domain or fragment)” showed a Kd of 1340 nM.
